Where two headings read alike, the source gives them in different places.
Key:
[1] = target: Int5 (Int-h/218 mutein) Int-h/218 substitutions (not given),I43A (Bacteriophage lambda) (UniProt P03700); conditions: attH x attPH, relative to Int-h/218 on attB x attP
[2] = target: Int1 (Int-h/218 mutein) Int-h/218 substitutions (not given),I43A,H61R (Bacteriophage lambda) (UniProt P03700); conditions: attH x attPH, relative to Int-h/218 on attB x attP
[3] = target: Int5 (Int-h/218 mutein) Int-h/218 substitutions (not given),I43A (Bacteriophage lambda) (UniProt P03700); test: cell_activity; conditions: attB x attP GFP reporter in HEK293, relative to Int-h/218
[4] = target: Int1 (Int-h/218 mutein) Int-h/218 substitutions (not given),I43A,H61R (Bacteriophage lambda) (UniProt P03700); test: cell_activity; conditions: attB x attP GFP reporter in HEK293, relative to Int-h/218
[5] = target: Int-h/218 (parental lambda integrase mutant) Int-h/218 substitutions (not given) (Bacteriophage lambda) (UniProt P03700); conditions: attB x attP recombination, real-time PCR; reference activity

Q: What does the source list for “CAGCTTTCTTATACCAAGTTG (double strand) [attPH]”?
A: binding signal [1]: 100%; binding signal [2]: 140%

Q: For “CTGCTTTCTTATACCAAGTGG (double strand) [attH]”, which binding signal ([1]; 9-fold over Int-h/218 on genomic attH (FIG. 4D)) is on record?
A: 100%

Q: And the binding signal ([2]; 7-fold over Int-h/218 when translated in vitro (FIG. 4A))?
A: 140%

Q: What does the source list for “CTGCTTTTTTATACTAACTTG (double strand) [attB core]”?
A: binding signal [3]: 65%; binding signal [4]: 50%; binding signal [5]: 100%

Q: What does the source list for “CAGCTTTTTTATACTAAGTTG (double strand) [attP core]”?
A: binding signal ([3]; attH x attP <1% activity): 65%; binding signal ([4]; attH x attP <1% activity): 50%; binding signal [5]: 100%

— patent US20130017578
